These results are taken from article PMC7073468, “Small RNA‐binding protein RapZ mediates cell envelope precursor sensing and signaling in Escherichia coli” (The EMBO Journal, 2020).

The target in one experiment is RapZ (Escherichia coli, UniProt P0A894). Nature of the experiment: SPR (Biacore, single-cycle kinetics); also co-purification detected by HILIC-MS/MS. Type of experiment: binding.
In experiment [1] the target is T1, Strep-RapZ (N-terminally Strep-tagged RapZ) (Escherichia coli, UniProt P0A894 1-284).
T1 construct: it is not measured here; also called YhbJ; source: purified recombinant protein (procedure in the Appendix Supplementary Methods); not shown: Strep, N-terminal, kept
T1 sequence (looked up): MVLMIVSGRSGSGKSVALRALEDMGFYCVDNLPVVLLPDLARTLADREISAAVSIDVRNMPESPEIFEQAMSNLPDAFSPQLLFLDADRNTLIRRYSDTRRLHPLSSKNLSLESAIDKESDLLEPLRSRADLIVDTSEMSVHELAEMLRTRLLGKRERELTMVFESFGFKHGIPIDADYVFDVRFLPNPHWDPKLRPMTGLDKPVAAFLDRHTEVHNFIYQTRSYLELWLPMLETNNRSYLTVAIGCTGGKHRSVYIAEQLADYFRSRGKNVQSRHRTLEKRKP
Put plainly: SPR; Biacore T200, 25°C; Strep-RapZ (200–400 RU) captured on a CM5 chip coated with Strep-Tactin XT; QseE-His10 or QseF-His10 injected at 10 nM, 50 nM, 2 × 100 nM, 250 nM, 500 nM and 1,000 nM, multicycle; HBS-EP buffer (10 mM HEPES pH 7.4, 150 mM NaCl, 3 mM EDTA, 0.005% P20); overall affinities. The note with it: both partners purified. In general terms: In SPR one partner is held on a chip, and binding of the other changes the refractive index at the surface.

The Kd is the concentration at which binding is half-saturated. Low values mean a tighter complex, high ones a looser complex. The term koff denotes the first-order rate constant of dissociation. A high value points to fast dissociation. One may read the kon as the rate constant with which the complex forms. Low values mean slow association, high ones fast association.

For `N[C@H]1C(O)O[C@H](COP(=O)(O)O)[C@@H](O)[C@@H]1O` (stereo partly shown) [GlcN6P], the equilibrium dissociation constant (Kd) on RapZ came out at 0.186 µM.

B1: QseE’-His10 (soluble cytoplasmic C-terminal part of kinase QseE, aa 196–475, with the HAMP and transmitter domains) (domain or fragment, Escherichia coli, UniProt P52101 196-475, looked up)
chain: MIIGPVKNIERMINRLGEGRSLGNSVSFSGPSELRSVGQRILWLSERLSWLESQRHQFLRHLSHELKTPLASMREGTELLADQVVGPLTPEQKEVVSILDSSSRNLQKLIEQLLDYNRKQADSAVELENVELAPLVETVVSAHSLPARAKMMHTDVDLKATACLAEPMLLMSVLDNLYSNAVHYGAESGNICLRSSLHGARVYIDVINTGTPIPQEERAMIFEPFFQGSHQRKGAVKGSGLGLSIARDCIRRMQGELYLVDESGQDVCFRIELPSSKNTK
notes: Histidine kinase QseE (a.k.a. GlrK, YfhK) of Escherichia coli, cytoplasmic part aa 196-475 (HAMP and transmitter domains); also called His10-tagged QseE’; GlrK; source: purified recombinant protein (procedure in the Appendix Supplementary Methods)
Consider B1, for which, in experiment [1], the dissociation constant (Kd) amounted to 12 µM, the koff is 0.054 s⁻¹ and the kon was determined as 4500 M⁻¹ s⁻¹.
